The target in the data set is recombinant human endorepellin/perlecan (R&Dsystems, catalog Number: 2364-ER-050), intact, P98160.

B1: Recombinant Human BMP-1/PCP (R&Dsystems, catalog Number: 1927-ZN) (protein)
chain: AATSRPERVWPDGVIPFVIGGNFTGSQRAVFRQAMRHWEKHTCVTFLERTDEDSYIVFTYRPCGCCSYVGRRGGGPQAISIGKNCDKFGIVVHELGHVVGFWHEHTRPDRDRHVSIVRENIQPGQEYNFLKMEPQEVESLGETYDFDSIMHYARNTFSRGIFLDTIVPKYEVNGVKPPIGQRTRLSKGDIAQARKLYKCPACGETLQDSTGNFSSPEYPNGYSAHMHCVWRISVTPGEKIILNFTSLDLYRSRLCWYDYVEVRDGFWRKAPLRGRFCGSKLPEPIVSTDSRLWVEFRSSSNWVGKGFFAVYEAICGGDVKKDYGHIQSPNYPDDYRPSKVCIWRIQVSEGFHVGLTFQSFEIERHDSCAYDYLEVRDGHSESSTLIGRYCGYEKPDDIKSTSSRLWLKFVSDGSINKAGFAVNFFKEVDECSRPNRGGCEQRCLNTLGSYKCSCDPGYELAPDKRRCEAACGGFLTKLNGSITSPGWPKEYPPNKNCIWQLVAPTQYRISLQFDFFETEGNDVCKYDFVEVRSGLTADSKLHGKFCGSEKPEVITSQYNNMRVEFKSDNTVSKKGFKAHFFSEKRPALQPPRGRPHQLKFRVQKRNRTPQ
Regarding B1, the “measured levels of LG3 (LG3 ELISA) after in vitro cleavage, 24 hours at 37 C” value is “LG3 was detected only in the endorepellin with BMP-1 sample”.

The values are drawn from patent US20250123292.
